Experimental data taken from US20240358805A1 (BRIGHAM AND WOMEN S HOSPITAL, published 2024).
Numbering of substitutions follows the chain as printed.

B1: monoclonal antibody 71A1 (antibody, V domains shown)
VH: EVQLQESGAELVRPGVSVKLSCKTSDYTFTSYWLHWFKQRPEQGLERIGEIDPSNGDADYSEKFKSKATLTVDKSSTTAYMQLASLTSEDSAVYYCAREAYGHYFDYWGQGTTLTVSS
VL: DVVMTQTPLSLPVSLGDQASISCRSSQSLEHSNGNTYLHWYLQKPGQSPKLLIYKLSNRFSGVPDRFSGSGSGTDFTLKISRVEAEDLGVYFCSQSTHVPYTFGGGTKLEIK
notes: Biotinylated when used as capture on streptavidin beads, resin or plates; also called Mab 71A1; mab 71 A1
B2: monoclonal antibody 1G5 (antibody, V domains shown)
VH: B1 VH with E1Q, E6Q, S7P
VL: B1 VL
notes: Biotinylated when used as capture; also called Mab 1G5; isolate 1g

What was measured:
[1] = target: T1, S26C Aβ40 reduced by DTT to its monomeric form; assay: 71A1 capture / 3D6 detector sandwich immunoassay, S26C Aβ40 dimer native or reduced by DTT
T1 construct: The dimer of m16 after reduction with DTT; also called reduced monomeric counterpart; monomeric Aβ

peptide mimetic 10 = target: T2, peptide mimetic 10; assay: phage display panning (Ph.D.-12 library) on immobilized 71A1
T2 construct: As for peptide mimetic 1; also called peptide 10
T2 peptide: EMAPVASANLPP
Source text: (§1) A New England Biolabs (NEB) Ph.D.-12™ Phage Display Peptide Library Kit (instructions attached) was used to isolate amino acid residue peptide ligands (referred to herein as peptide mimetics) that bound to immobilized Mab 71A1. The New England Biolabs Ph.D.-12™ Phage Display Peptide Library Kit is a combinatorial library of random, 12 amino acid peptides (12-mers) fused to a minor coat protein (pIII) of the M13 bacteriophage. The peptide was expressed as a fusion with a coat protein that produces a display of the fused protein on the surface of the bacteriophage. The library consists of 2.7×109 electroporated sequences, amplified once to yield approximately 55 copies of each sequence in 10 μl of the supplied phage.
(§2) Immobilized 71A1 antibody was used to isolate the 12 amino acid peptides, shown in FIG. 13, that bound to the variable region. Thermo Scientific™ AminoLink Plus Coupling Resin was used to immobilize Mab 71A1. Negative control particles were made using monoclonal antibody 3C7 with specificity for an irrelevant peptide sequence. The Thermo Scientific™ AminoLink Plus Coupling Resin Protocol is provided that was used to produce the 71A1 particles panned with the NEB library. Briefly, 2 mL aminolink particle slurry was washed twice with 10 mL, 0.1 M sodium bicarbonate buffer pH 10 in a 15 mL conical tube by centrifugation for 10 minutes at 2000×g. 10 mgs of 71A1 antibody in this binding buffer was then added to the particles transferred to a 2 mL eppendorph tube and rotated at room temperature for 2 hours. The slurry was then added to a Millipore, Ultrafree-MC centrifugal filter unit and the resin washed 3× in 2 mL, 0.1M sodium phosphate, 0.15M NaCl, pH 7.2 binding buffer. Spun particles were then mixed with 2 mL pH 7.2 buffer and 40 μl of 50 mM Sodium Cyanoborohydride Solution and rotated for 4 hours. The aminoLink gel contains aldehyde functional groups that spontaneously react with primary amines on the antibody. The Schiff base bonds that form are then reduced to stable secondary amine bonds in the presence of the mild reducing agent, sodium cyanoborohydride. Particles were then washed twice with 2 mL 1M Tris HCL, pH 7.4, resuspended in 2 mL of this same buffer and 40 μl Sodium cyanoborohydride to block unbound sites on the particles, and rotated for 30 minutes. Particles washed 5 times with 1M sodium chloride were suspended in 1 mL PBS.

peptide mimetic 9 = target: T3, peptide mimetic 9; assay: as above
T3 construct: As for peptide mimetic 1; also called peptide 9
T3 peptide: GPHTYPPQIALT
Source text: as §1, §2

peptide mimetic 1 = target: T4, peptide mimetic 1; assay: as above
T4 construct: also called peptide 1
T4 peptide: QIYEVHHRGYTD
Source text: as §1, §2

peptide mimetic 3 = target: T5, peptide mimetic 3; assay: as above
T5 construct: As for peptide mimetic 1; also called peptide 3
T5 peptide: SPPTYEIHHFSP
Source text: as §1, §2

peptide mimetic 2 = target: T6, peptide mimetic 2; assay: as above
T6 construct: As for peptide mimetic 1; also called peptide 2
T6 peptide: NLHQYPTAMQAR
Source text: as §1, §2

peptide mimetic 12 = target: T7, peptide mimetic 12; assay: as above
T7 construct: As for peptide mimetic 1; also called peptide 12
T7 peptide: SPSHMYPSSLIQ
Source text: as §1, §2

peptide mimetic 4 = target: T8, peptide mimetic 4; assay: as above
T8 construct: As for peptide mimetic 1; also called peptide 4
T8 peptide: YQIHHNTQKRGG
Source text: as §1, §2

peptide mimetic 7 = target: T9, peptide mimetic 7; assay: as above
T9 construct: As for peptide mimetic 1; also called peptide 7
T9 peptide: GWYEIHHPSQRA
Source text: as §1, §2

peptide mimetic 6 = target: T10, peptide mimetic 6; assay: as above
T10 construct: As for peptide mimetic 1; also called peptide 6
T10 peptide: TPNNTTSHRYPD
Source text: as §1, §2

peptide mimetic 5 = target: T11, peptide mimetic 5; assay: as above
T11 construct: As for peptide mimetic 1; also called peptide 5
T11 peptide: DSVVPSYEVHHK
Source text: as §1, §2

peptide mimetic 13 = target: T12, peptide mimetic 13; assay: indirect ELISA, peptide at 10 µg/mL on maleimide-activated plate, absorbance at 650 nm
T12 construct: As for peptide mimetic 1; also called peptide 13
T12 peptide: QVYEVHHRGYTD
Experimental: (§3) A standard, indirect enzyme linked immunosorbent assay (ELISA) with purified monoclonal antibody 71A1 was used to assay for binding to peptide mimetics 1-13 (sequences in FIG. 13) conjugated to maleimide-activated micro titer plates at 10 μg/mL in 0.1M Sodium bicarbonate buffer pH10 and blocked with PBS and 2% BSA. After one hour incubation, the wells were washed and then 100 ul of a secondary, Horseradish peroxidase (HRPO)-conjugated goat anti-mouse antibody was added and the plates, incubated for an additional hour before addition of TMB (3,3′,5,5′-Tetramethylbenzidine) substrate. Absorbance was measured in a spectrophotometer at 650 nm.

peptide mimetic 11 = target: T13, peptide mimetic 11; assay: as above
T13 construct: As for peptide mimetic 1; also called peptide 11
T13 peptide: NMYEWNHKDPNM
Experimental: as §3

peptide mimetic 8 = target: T14, peptide mimetic 8; assay: as above
T14 construct: As for peptide mimetic 1; also called peptide 8
T14 peptide: SYELHHKPLHAQ
Experimental: as §3

[2] = target: T15, NETL-1 cyclized synthetic peptide immunogen (cyclized on resin through the cysteines C4 and C27; N-terminal cysteine used for conjugation to maleimide-activated plates); assay: indirect ELISA, peptide on maleimide-activated plate
T15 construct: Aβ residues 9-18, then Pro-Asn, then the same ten residues backwards; also called cyclized peptide; the immunogen
T15 peptide: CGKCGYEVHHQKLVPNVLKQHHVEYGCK
Source text: (§4) The rationale behind the NETL-1 immunogen was that a more focused epitope formed by a cyclized peptide may restrict the response to a dimer structure derived from the chosen 10aa sequence with minimal or no induction of responses to the monomer 10aa peptide sequence found within full length Aβ40. Both responses were observed. We can account for this, in part, by the fact that there may always be a minimal epitope available for recognition that is cross-reactive with the monomer sequence no matter how small the peptide structure. Several monoclonal antibodies specific for both NETL-1 and NETL-2 were isolated. Two isolates, 7a and 1g stood out that bound to NETL-1 but not to NETL-2 or Aβ40. These isolates were sub-cloned for further characterization. Two isolated subclones, Mab 71A1 and 1G5 were chosen, grown in tissue culture and purified for confirmation of specificity and for future studies. Both 71A1 and 1G5 monoclonal antibodies bound to the cyclized peptide, NETL-1 and not to control wells, Aβ40 monomer peptide or control peptide NETL-2 (FIG. 2). FIG. 2 is a standard, indirect enzyme linked immunosorbent assay (ELISA) with the purified monoclonal antibodies assayed for binding to Aβ40, NETL 1 or NETL 2 peptides conjugated to malemide-activated (SH-reactive) micro titer plates. After one hour incubation, the wells were washed and then 100 ul of a secondary, Horseradish peroxidase (HRPO)-conjugated goat anti-mouse antibody was added and the plates, incubated for an additional hour before addition of TMB (3,3′,5,5′-Tetramethylbenzidine) substrate. Absorbance was measured in a spectrophotometer at 650 nm.

[3] = target: T16, full length Aβ40 with a C-terminal cysteine (conjugated to maleimide-activated plate through the added cysteine); assay: as above
T16 construct: also called Aβ40 monomer peptide
Source text: as §4

[4] = target: T17, soluble Aβ / Aβ oligomers (oAβ) of human AD brain extracts (human, UniProt P05067 672-713); assay: 71A1 capture / 3D6 detector sandwich immunoassay, sample with or without 8M GnCl
T17 construct: Natural mixture; also called Aβ from human brain soaking extract; AD brain soaking extract oAβ
T17 sequence (P05067 672-713): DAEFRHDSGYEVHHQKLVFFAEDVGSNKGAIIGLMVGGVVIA

[5] = target: T18, Aβ oligomers (oAβ) in human plasma (human, UniProt P05067 672-713); assay: as above
T18 construct: Natural mixture; also called plasma oAβ; 71A1-positive oligomers in plasma
T18 sequence (P05067 672-713): as above

[6] = target: T19, Aβ / Aβ oligomers in human CSF (human, UniProt P05067 672-713); assay: as above
T19 construct: Natural mixture; also called CSF Aβ; CSF Aβ oligomers
T19 sequence (P05067 672-713): as above

Binder | fold less binding than to higher order Aβ (non-reduced S26C dimer) [1] [fold] | binding result (peptide mimetic 10) | binding result (peptide mimetic 9) | binding result (peptide mimetic 1) | binding result (peptide mimetic 3) | binding result (peptide mimetic 2) | binding result (peptide mimetic 12) | binding result (peptide mimetic 4) | binding result (peptide mimetic 7) | binding result (peptide mimetic 6) | binding result (peptide mimetic 5) | binding result (peptide mimetic 13) | binding result (peptide mimetic 11) | binding result (peptide mimetic 8) | binding result [2] | binding result [3] | decrease of 71A1/3D6 signal after 8M GnCl denaturation [4] [%] | decrease of 71A1/3D6 signal after 8M GnCl denaturation [5] [%] | decrease of 71A1/3D6 signal after 8M GnCl denaturation [6] [%]
B1 | > 100 | binds | binds | binds | binds | binds | binds | binds | binds | binds | binds | binds | binds | binds | binds | no binding | > 70 | > 84 | > 99
B2 |  |  |  |  |  |  |  |  |  |  |  |  |  |  | binds | no binding |  |  | 
